Results on eleven molecules are retold here after patent US11541128B2, “Multi-drug antibody drug conjugates” (Seagen Inc., priority 2016, dated 2023).

Assay [1] deals with CD30(−) U-266 cells. Briefly: Binding to CD30(−) cells. The settings on record: CD30(−) U-266 cells (not shown).
Assay [2] has as its system Granta-519. Briefly: In vitro cytotoxicity, Granta-519. Type of assay: cell-based. The settings on record: co-administration IC50 vs co-conjugate IC50.
Assay [3] relates to SU-DHL-16. The experiment in a line: In vitro cytotoxicity, SU-DHL-16. The settings on record: co-administration IC50 vs co-conjugate IC50. The class given is cell-based.
Assay [4] deals with RL. The experiment in a line: In vitro cytotoxicity, RL. Type of assay: cell-based. The settings on record: hBU12 conjugates targeting CD19.
For assay [5], the system named is Nalm-6. The experiment in a line: In vitro cytotoxicity, Nalm-6. The class given is cell-based. The settings on record: hBU12 conjugates targeting CD19.
The subject of assay [6] is WSU-DLCL2. The experiment in a line: In vitro cytotoxicity, WSU-DLCL2. The class given is cell-based. The settings on record: hBU12 conjugates targeting CD19.
In assay [7] the test system is Raji. Briefly: In vitro cytotoxicity, Raji. Type of assay: cell-based. The settings on record: hBU12 conjugates targeting CD19.
In assay [8] the test system is MCF-7 breast carcinoma cells. The experiment in a line: Colony forming assay, MCF-7. The settings on record: ADC 100 ng/mL for 48 hours, recovery 7-9 days, N=2. The class given is cell-based. How it is done: This analysis was conducted on either JHH-7 (hepatocarcinoma cells) or MCF-7 (LIV-1positive) cells using antigen specific dual-auristatin ADCs. […] A dual-auristatin ADC targeting the LIV-1antigen on MCF-7 cells also allowed for less outgrowth of resistant colonies compared to single-drug ADCs.
For testing of LIV-1 targeted ADCs, MCF-7 breast carcinoma cells (ATCC) were plated in 6-well tissue culture plates at a density of 10,000 cells per well. ADCs were added to cells at a concentration of 100 ng/mL for 48 hours. At this time, media was removed and cells were washed with PBS. Fresh media was added and the cells allowed to recover for 7-9 days. Cells were then washed with PBS, fixed with 3.7% paraformaldehyde, stained with 0.5% crystal violet, and then counted. Each condition was conducted with N=2.

Turning to “cAC10: Chimeric anti-CD30 monoclonal antibody, naked antibody”, the “binding to CD30(−) U-266 cells” value in assay [1] is on record as “Neither cAC10 or cAC10-4-(3-1) bound”.

B1: hBU12 Co-Conjugate (conjugate, chains of the INN, looked up)
VH: QVQLQESGPGLVKPSQTLSLTCTVSGGSISTSGMGVGWIRQHPGKGLEWIGHIWWDDDKRYNPALKSRVTISVDTSKNQFSLKLSSVTAADTAVYYCARMELWSYYFDYWGQGTLVTVSS
VL: EIVLTQSPATLSLSPGERATLSCSASSSVSYMHWYQQKPGQAPRLLIYDTSKLASGIPARFSGSGSGTDFTLTISSLEPEDVAVYYCFQGSVYPFTFGQGTKLEIK
modifications: co-conjugate with two drug payloads
For B1, the Fold difference in assay [2] is 41.5; in assay [3], 2.5.

B2: hBU12-Linking Assembly Unit Aa-Comp. Aa (8) (conjugate, chains of the INN, looked up)
VH: B1 VH
VL: B1 VL
modifications: linker assembly with compound Aa
Regarding B2, the IC50 (usually the concentration at which inhibition is half-maximal) amounted to 4 ng/mL in assay [4] and 8 ng/mL in assay [5].

B3: hBU12-Linking Assembly Unit Aa-Comp. Ah (8) (conjugate, chains of the INN, looked up)
VH: B1 VH
VL: B1 VL
modifications: linker assembly with compound Ah
Regarding B3, the IC50 in assay [4] was determined as 60 ng/mL; in assay [6], 7 ng/mL; in assay [7], 97 ng/mL; in assay [5], 9 ng/mL.

B4: hBU12-Linking Assembly Unit Aa-Comp. Ab (16) (conjugate, chains of the INN, looked up)
VH: B1 VH
VL: B1 VL
modifications: linker assembly with compound Ab
For the molecule B4, the IC50 in assay [6] was 8.6 ng/mL; in assay [7], 6.9 ng/mL.

B5: hBU12-Linking Assembly Unit Aa-Comp. Aa (8)-Comp. Ah (8) (conjugate, chains of the INN, looked up)
VH: B1 VH
VL: B1 VL
modifications: linker assembly with compounds Aa and Ah
Turning to B5, the IC50 is 2 ng/mL in assay [4], 2 ng/mL in assay [6] and 5 ng/mL in assay [7].

B6: hBU12-Linking Assembly Unit Aa-Comp. Ab (8) Comp. Aa (8) (conjugate, chains of the INN, looked up)
VH: B1 VH
VL: B1 VL
modifications: linker assembly with compounds Ab and Aa
For the molecule B6, the results for the IC50 in assay [4], in assay [7] and in assay [5] were 1 ng/mL, 1.6 ng/mL and 2 ng/mL, respectively.

B7: hBU12-Linking Assembly Unit Aa-Comp. Aa (16) (conjugate, chains of the INN, looked up)
VH: B1 VH
VL: B1 VL
modifications: Linking Assembly Unit Aa-Compound Aa drug conjugate
Regarding B7, the IC50 in assay [6] was 1.5 ng/mL; in assay [7] it was 2.1 ng/mL.

B8: hBU12-Linking Assembly Unit Aa-Comp. Ab (8) (conjugate, chains of the INN, looked up)
VH: B1 VH
VL: B1 VL
modifications: linker assembly with compound Ab
On to B8, for which the IC50 in assay [4] came to 340 ng/mL; in assay [5] it was 5 ng/mL.

B9: hLIV22-Linking Assembly Unit Aa (8)-MMAE (16) (conjugate, chains of the INN, looked up)
VH: QVQLVQSGAEVKKPGASVKVSCKASGLTIEDYYMHWVRQAPGQGLEWMGWIDPENGDTEYGPKFQGRVTMTRDTSINTAYMELSRLRSDDTAVYYCAVHNAHYGTWFAYWGQGTLVTVSS
VL: DVVMTQSPLSLPVTLGQPASISCRSSQSLLHSSGNTYLEWYQQRPGQSPRPLIYKISTRFSGVPDRFSGSGSGTDFTLKISRVEAEDVGVYYCFQGSHVPYTFGGGTKVEIK
modifications: Linking Assembly Unit Aa-MMAE conjugate
Take B9: the Colony forming units in assay [8] is given as 42.5.

B10: hLIV22-Linking Assembly Unit Aa (8)-Comp. Aa (8)-MMAE (8) (conjugate, chains of the INN, looked up)
VH: B9 VH
VL: B9 VL
modifications: Linking Assembly Unit Aa, Compound Aa, MMAE conjugate
Consider B10, for which, in assay [8], the Colony forming units was found to be 19.5.
